These results are taken from patent EP1728802A2.

The target of test [1] is ErbB3 expressed on 4E9H3 cells (K562 cells stably transfected with erbB3 cDNA) (UniProt P21860). The experiment in a line: Scatchard analysis of competitive 125I-HRG binding to 4E9H3 cells, no antibody.
For test [2] the target is unchanged. The test can be described thus: Scatchard analysis of competitive 125I-HRG binding to 4E9H3 cells, in the presence of 100 nM 3-8D6 Fab.
The target is the same in test [3]. The test can be described thus: Scatchard analysis of competitive 125I-HRG binding to 4E9H3 cells, in the presence of 100 nM 3-8D6 IgG.

UniProt P21860, sequence (P21860 20-1342 limits assumed): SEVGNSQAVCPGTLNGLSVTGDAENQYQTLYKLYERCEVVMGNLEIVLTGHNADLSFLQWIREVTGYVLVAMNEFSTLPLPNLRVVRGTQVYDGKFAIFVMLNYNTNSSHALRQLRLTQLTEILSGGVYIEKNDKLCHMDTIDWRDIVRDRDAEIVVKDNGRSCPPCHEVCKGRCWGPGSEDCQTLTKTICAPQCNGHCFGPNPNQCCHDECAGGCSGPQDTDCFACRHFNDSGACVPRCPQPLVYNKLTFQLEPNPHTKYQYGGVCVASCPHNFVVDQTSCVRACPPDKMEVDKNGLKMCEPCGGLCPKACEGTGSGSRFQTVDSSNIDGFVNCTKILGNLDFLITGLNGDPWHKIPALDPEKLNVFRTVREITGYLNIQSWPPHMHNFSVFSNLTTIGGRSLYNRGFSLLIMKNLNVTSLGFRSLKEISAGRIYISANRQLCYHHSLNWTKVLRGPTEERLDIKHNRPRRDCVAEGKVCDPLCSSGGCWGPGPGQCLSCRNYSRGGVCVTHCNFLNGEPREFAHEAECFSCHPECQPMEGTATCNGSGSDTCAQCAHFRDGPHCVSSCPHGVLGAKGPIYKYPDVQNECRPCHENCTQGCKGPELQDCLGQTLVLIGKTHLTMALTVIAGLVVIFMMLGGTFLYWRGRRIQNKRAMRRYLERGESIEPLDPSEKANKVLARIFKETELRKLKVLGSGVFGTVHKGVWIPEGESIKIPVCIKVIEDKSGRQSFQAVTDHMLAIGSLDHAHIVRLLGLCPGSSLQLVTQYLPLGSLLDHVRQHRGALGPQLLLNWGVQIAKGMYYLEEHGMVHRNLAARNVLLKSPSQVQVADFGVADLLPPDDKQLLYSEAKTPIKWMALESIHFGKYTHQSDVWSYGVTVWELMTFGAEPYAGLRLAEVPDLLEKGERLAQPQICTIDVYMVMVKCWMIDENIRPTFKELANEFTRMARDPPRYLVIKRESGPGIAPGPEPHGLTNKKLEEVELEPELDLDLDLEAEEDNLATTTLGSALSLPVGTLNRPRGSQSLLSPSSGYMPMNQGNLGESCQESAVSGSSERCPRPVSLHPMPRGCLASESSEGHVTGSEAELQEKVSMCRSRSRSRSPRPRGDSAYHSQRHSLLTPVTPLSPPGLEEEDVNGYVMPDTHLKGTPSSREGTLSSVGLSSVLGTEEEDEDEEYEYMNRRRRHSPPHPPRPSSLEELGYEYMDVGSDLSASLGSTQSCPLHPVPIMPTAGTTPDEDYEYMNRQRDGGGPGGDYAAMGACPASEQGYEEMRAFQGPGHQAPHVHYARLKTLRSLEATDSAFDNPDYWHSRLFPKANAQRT

Consider “HRGβ1(177-244), EGF-like domain of the β1 isoform of heregulin (from UniProt Q02297 177-244) (ligand)”, for which the values for the Kd in test [1], in test [2] and in test [3] were 1.2 nM, 0.28 nM and 0.21 nM, respectively. Moreover, the Sites/Cell in test [1] was determined as 360000 sites/cell; in test [2], 290000 sites/cell; in test [3] it was 240000 sites/cell.
